In patent US20080201790A1, “Method and product for regulating cell responsiveness to external signals” (priority 1993, published 2008):

What was measured:
[1] = tested on: Gal4/Elk-1; assay: Gal4-TK-luciferase transactivation analysis, Gal4/Elk-1; format: cell-based; conditions: expression in Swiss 3T3 cells
Source text: (§1) Swiss 3T3 cells were transfected using calcium phosphate or lipofectamine with the reporter plasmid Gal4-TK-luciferase, which contains four Gal4 binding sites (Sadowski, I., et al. (1988). Nature 335, 563-564). adjacent to a minimal thymidine kinase (TK) promoter that controls expression of luciferase, in the presence or absence of activator plasmids encoding Gal4(1-147)/Myc(7-101) (Gupta et al. (1993) Proc. Natl. Acad. Sci. USA 90:3216-3220), Gal4(1-47)/Elk-1(83-428) (Marais, et al. (1993) Cell 73:381-393) or Gal4(1-147)/c-Jun(1-233) Hibi et al. (1993) Genes & Development 7:2135-2148). Transfections included pCMV5 without a cDNA insert (basal control), pCMV5MEKKCOOH and in some experiments pCMV5BxBRaf. Cells were incubated for 24-48 hr after transfection, lysed and assayed for luciferase activity. Values were normalized to equivalent μg protein for all experiments.

[2] = tested on: Swiss 3T3 cells; assay: MEKKCOOH-induced cell death after nuclear microinjection of expression plasmids; format: cell-based
Experimental: (§2) Swiss 3T3 and REF52 cells were plated on acid-washed glass cover slips in Dulbecco's Modified Eagle's Medium (DMEM) and 10% bovine calf serum (BCS) or newborn calf serum (NCS). Cells were placed in DMEM/0.1% calf serum for overnight incubation prior to microinjection and used for injection at 50-70% confluence. Injections were performed with an Eppendorf automated microinjection system with needles pulled from glass capillaries on a vertical pipette puller (Kopf, Tujunga, Calif.). Cells were injected with pCMVβ-gal in the presence or absence of pCMV5MEKKCOOH or pCMV5BxBRaf at 20-100 ng/μl for each expression plasmid in 100 mM KC1, 5 mM NaPO4, pH 7.3. Following injection cells were placed in 1% NCS for 12-18 hr (Swiss 3T3) or 42 hr (REF52) prior to fixation with paraformaldehyde and staining. Similar results were obtained when cells were placed in 10% NCS after microinjection. Propidium iodide ([…]) was used to stain DNA. X-Gal reactions were performed for six hr.
Swiss 3T3 cells were microinjected with 100 ng/μl pCMVβ-gal and 20 ng/μl pCMV5MEKKCOOH. To label free DNA ends fixed and rehydrated cells were incubated with terminal deoxytransferase (TDT) and 10 nM biotin-dUTP following the manufacturer's instructions (Boehringer-Mannheim). Cells were stained with FITC-streptavidin to label DNA fragments. β-gal was detected using rabbit anti-p-gal antibody (Cappel Labs) and a rhodamine-labeled goat anti-rabbit antibody (Cappel Labs).
Seventeen hours after injection cells were fixed and stained for, β-galactosidase activity with X-Gal. Injected cells attached to the coverslip were scored as positive for cell death when they were highly condensed, small round cells.

[3] = tested on: GST-Ras^V12; assay: Binding of COS cell-expressed MEKK1 proteins to GST-Ras^V12 agarose; conditions: COS cell lysates, immunoblot
Source text: COS cells were transiently transfected by the DEAE-dextran protocol as generally described in Example 3. Cos cells were transfected with: (1) p-MEKK1 containing a nucleic acid molecule encoding MEKK1 as described in Lange-Carter et al. (Science 260:315-319, […]); (2) p-MEKKNH2 containing a nucleic acid molecule that encodes a 858 base pair Pvull(682)-Ncol(1541) restriction digest fragment of the amino terminus of MEKK1 ligated into pCMV5; (3) p-MEKKCOOH containing a nucleic acid molecule that encodes a 1435 base pair Ncol(1541)-Sspl(2976) restriction digest fragment that includes the entire kinase domain of MEKK1 ligated into pCMV5; (4) pCMV5 without insert; or (5) p-C4Raf containing a nucleic acid molecule that encodes the amino terminus of Raf-1 ligated into pCMV5. COS cells expressing the various MEKK1 proteins were […] COS cells expressing the various MEKK1 proteins were lysed in EB (1% Triton X-100, 10 mM Tris HCl [pH 7.4], 5 mM EDTA, 50 mM NaCl, 50 mM NaF, 0.1% bovine serum albumin, 0.2 U/ml aprotinin, 1 mM phenylmethylsulfonyl fluoride and 2 mM Na3 VO4). The lysates were separated into two equal parts for separate binding reactions. Half of the lysate was incubated with GST agarose (1.5 μg) while half of the lysate was incubated with GST-Ras^V12 agarose (1.5 μg) (purchased from UBI) for 1 hr at 4° C. The GST-Ras^V12 was preincubated at 30° C. for 30 min with 1 mM nucleotide (GDP or GTPγS). The nucleotide binding reaction was stopped by adding MgCl2 to a final concentration of 20 mM. After the 1 hr binding reaction the agarose beads were pelleted at 2000 rpm for 2 min and washed 3 times with PBS+1.0% Triton X-100. The washed agarose beads were boiled in Laemmli SDS sample buffer and the proteins resolved by SDS polyacrylamide gel electrophoresis. Proteins were transferred onto nitrocellulose for immunoblotting with antibodies specific for an NH2 terminal fusion protein (described in Example 1) or a COOH terminal peptide (described in Example 1).

[4] = tested on: Gal4/Jun; assay: Gal4-TK-luciferase transactivation analysis, Gal4/Jun; format: cell-based; conditions: IPTG-induced stable expression in Swiss 3T3 cells
Source text: as §1

[5] = tested on: REF52 cells; assay: Cell morphology after microinjection of expression plasmids; format: cell-based; conditions: microinjected REF52 cells
Experimental: as §2

[6] = tested on: p38/Hog1; assay: p38/Hog1 activity in Swiss 3T3 clones with inducible MEKKCOOH; format: cell-based; conditions: 17 hours IPTG induction
[7] = tested on: Swiss 3T3 cells; assay: UV-induced apoptosis in Swiss 3T3 clones with IPTG-inducible MEKKCOOH; format: cell-based; conditions: two hours after ultraviolet irradiation
Experimental: FIG. 16. Induction of MEKKCOOH expression by IPTG in Swiss 3T3 cells increases the number of condensed cells and stimulates c-Myc transactivation. In panel A, cells were incubated in the presence or absence of 5 mM IPTG for forty eight hours. Cells were stained with acrodine orange and condensed cells quantitated per 1000 cells counted per coverslip. In panel B Swiss 3T3 cells with inducible MEKKCOOH were incubated in the presence or absence of IPTG. The indicated cells were then exposed to UV-C irradiation and then fixed and stained with propidium iodide. The percentage of apoptotic cells was enumerated.
Because stable expression of MEKKCOOH appeared to inhibit clonal expansion of Swiss 3T3 cells under G418 drug selection, clones were isolated having inducible expression of the kinase. The Lac Switch expression system (Stratagene) was used to control the expression of MEKKCOOH. Several independent clones were isolated and their properties analyzed in the presence or absence of IPTG-induced expression of MEKKCOOH. The parental LacR+ clone expressing only the Lac repressor was used as the control. […] This is probably due to a basal level of MEKKCOOH expression in uninduced cells. […] This maybe related to selection of cells during the cloning procedure that adapted to a low, constitutive level of MEKKCOOH expression. […]

transactivation function of Elk-1 [1]: markedly activated | Gal4/Jun activity [4]: little effect on Gal4/Jun activity
B1: MEKKCOOH: a truncated activated form of MEKK1 including the entire kinase domain (protein)
chain: MAMSASQDALPIVPQLQVENGEDIIIIQQDTPETLPGHTKAKQPYREDAEWLKGQQIGLGAFSSCYQAQDVGTGTLMAVKQVTYVRNTSSEQEEVVEALREEIRMMGHLNHPNIIRMLGATCEKSNYNLFIEWMAGGSVAHLLSKYGAFKESVVINYTEQLLRGLSYLHENQIIHRDVKGANLLIDSTGQRLRIADFGAAARLASKGTGAGEFQGQLLGTIAFMAPEVLRGQQYGRSCDVWSVGCAIIEMACAKPPWNAEKHSNHLALIFKIASATTAPSIPSHLSPGLRDVAVRCLELQPQDRPPSRELLKHPVFRTTW
Condensed Cells (percent of cells injected) ([2]; 100 ng/μl plasmids, seventeen hours after injection, X-Gal): Approximately 84% | cells with cytoplasmic and nuclear morphology characteristic of apoptosis ([2]; 18 hrs postinjection): Greater than 80% | DNA fragmentation (TDT, biotin-dUTP, streptavidin-FITC) ([2]; microinjected Swiss 3T3 cells): significant DNA fragmentation | induction of cell death on expression (in words) ([2]; microinjected Swiss 3T3 cells): resulted in significant cell death | binding to GST-Ras^V12 (in words) [3]: bound to GST-Ras^V12 in a GTP dependent manner | cytoplasmic and nuclear morphology [5]: dramatic cytoplasmic shrinkage and nuclear condensation | p38/Hog1 activity [6]: did not activate either ERK or p38/Hog1 activity | cells morphologically highly condensed, appearing apoptotic [7]: greater than 30%
